Test results: publication PMC3070410

Molecular target: T1, RepA hexameric replicative helicase (plasmid RSF1010, UniProt P20356 1-279)
T1 sequence: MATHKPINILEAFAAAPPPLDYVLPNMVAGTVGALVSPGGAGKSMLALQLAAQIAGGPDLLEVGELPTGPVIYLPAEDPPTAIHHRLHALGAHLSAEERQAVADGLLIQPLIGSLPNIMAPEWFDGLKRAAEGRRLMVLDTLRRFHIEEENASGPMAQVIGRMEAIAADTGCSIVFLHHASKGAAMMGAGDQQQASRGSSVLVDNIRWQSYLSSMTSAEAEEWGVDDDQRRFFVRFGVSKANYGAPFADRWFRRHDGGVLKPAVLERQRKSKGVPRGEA
Experiment: stopped-flow fluorescence anisotropy

Binder: TTTTTTTTTTTTTTTTTTTT (ssDNA, 3' amino six-carbon linker residue) [dT(pT)19-Fl-3' (21-mer)]
- binding result: binds
